Holding throughout (assay): cell-based or functional assay
Experiment [1] concerns the target receptor binding domain (RBD) in the SARS-CoV-2 UK variant (B.1.1.7) (SARS-CoV-2 UK variant (B.1.1.7)), P0DTC2.
Experiment [2] concerns the target receptor binding domain (RBD) in wild-type SARS-COV-2 (SARS-CoV-2 (wild-type)), P0DTC2.
Experiment [3] concerns the target receptor binding domain (RBD) in the SARS-CoV-2 Brazilian variant (P.1) (SARS-CoV-2 Brazilian variant (P.1)), P0DTC2.

Here are results for six molecules from US20240309059A1, “PEPTIDE HAVING ANTI-VIRAL ACTIVITY, ANTI-VIRAL AGENT COMPRISING SAID PEPTIDE, AND METHOD FOR PRODUCING SAID ANTI-VIRAL AGENT” (National University Corporation Tokyo Medical and Dental …, priority 2021, published 2024).

The molecule DKLWILQKIYEIMVRLDEEGHGEASLMVSDLIYEFMKRD (modifications not checked) [Ce172] gave an IC50 value, plaque reduction assay using the SARS-COV-2 UK variant (B.1.1.7) in experiment [1] of 0.0022 nM.
The same measure, in the same setting: next, DKEWILYKIYEIMVRLDEEGHGEASLMVSDLIYEFMKRD (modifications not checked) [Ce149]: 0.0021 nM.
Same read-out and setting: next, DKEWILQKIYEIMRRLDEEGHGEASLRVSDLIYEFMKRD (modifications not checked) [Ce59]: 0.2 nM.
In turn, DKEWILQKIYEIMRLLDELGHAEASMRVSDLIYEFMKKD (modifications not checked) [Ce1] displayed an IC50 value, plaque reduction assay using wild-type SARS-COV-2 in experiment [2] of 1.5 nM.
Consider DKEWILQKIYEIMRRLDEEGHGEASLRVSDLIYEFMKKD (modifications not checked) [Ce41], for which the IC50 value, plaque reduction assay using the SARS-COV-2 UK variant (B.1.1.7) in experiment [1] was determined as 0.68 nM.
DKEWILQKIYEIMRRLDEEGHAEASMRVSDLIYEFMKKD (modifications not checked) [Ce9] yielded an IC50 value, plaque reduction assay using the SARS-COV-2 Brazilian variant (P.1) in experiment [3] of 1200 nM. For the same molecule, in experiment [1], the IC50 value, plaque reduction assay using the SARS-COV-2 UK variant (B.1.1.7) was 13 nM. Moreover, the IC50 value, plaque reduction assay using wild-type SARS-COV-2 in experiment [2] came to 0.4 nM.
